What was measured:
Experiment in all cases: MSD electrochemiluminescence assay; chemokine coated at 1 µg/mL, 18V4F at 3 µg/mL; background = BSA
[1] = molecular target: T1, SDF
T1 construct: also called SDF-1/CXCL12; CXCL12

[2] = molecular target: T2, BRAK
T2 construct: also called BRAK/CXCL14; CXCL14
T2 chemokine: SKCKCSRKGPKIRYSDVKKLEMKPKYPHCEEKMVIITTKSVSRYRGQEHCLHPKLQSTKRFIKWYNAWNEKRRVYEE

[3] = molecular target: T3, Groα
T3 construct: also called Gro-α/CXCL1; CXCL1

[4] = molecular target: T4, GCP2
T4 construct: also called GCP-2/CXCL6; CXCL6
T4 sequence (chemokine, as listed by the source): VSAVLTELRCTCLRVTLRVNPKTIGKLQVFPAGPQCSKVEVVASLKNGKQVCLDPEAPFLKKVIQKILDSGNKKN

[5] = molecular target: T5, IL-8
T5 construct: also called IL-8/CXCL8; CXCL8
T5 sequence (chemokine, as listed by the source): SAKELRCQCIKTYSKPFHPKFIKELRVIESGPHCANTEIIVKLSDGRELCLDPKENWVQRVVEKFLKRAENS

[6] = molecular target: T6, CTACK
T6 construct: also called CTACK/CCL27; CCL27
T6 chemokine: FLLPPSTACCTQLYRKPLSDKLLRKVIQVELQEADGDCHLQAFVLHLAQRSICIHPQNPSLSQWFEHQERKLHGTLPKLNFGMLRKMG

[7] = molecular target: T7, PF4
T7 construct: also called PF4/CXCL4; CXCL4
T7 chemokine: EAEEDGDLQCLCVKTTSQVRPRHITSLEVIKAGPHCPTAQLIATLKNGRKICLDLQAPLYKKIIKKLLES

[8] = molecular target: T8, XCL1
T8 chemokine: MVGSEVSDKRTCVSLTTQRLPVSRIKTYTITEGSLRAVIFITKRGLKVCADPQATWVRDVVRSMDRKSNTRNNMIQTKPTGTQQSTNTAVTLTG

[9] = molecular target: T9, Groβ
T9 construct: also called Gro-β/CXCL2; CXCL2
T9 sequence (chemokine, as listed by the source): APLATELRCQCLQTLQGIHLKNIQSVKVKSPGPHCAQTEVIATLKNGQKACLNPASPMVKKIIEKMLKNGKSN

[10] = molecular target: T10, NAP-2
T10 construct: also called NAP-2/CXCL7; CXCL7
T10 chemokine: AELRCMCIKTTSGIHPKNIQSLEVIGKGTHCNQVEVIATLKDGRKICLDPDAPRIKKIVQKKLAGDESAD

[11] = molecular target: T11, BCA1
T11 construct: also called BCA-1/BLC/CXCL13; CXCL13
T11 chemokine: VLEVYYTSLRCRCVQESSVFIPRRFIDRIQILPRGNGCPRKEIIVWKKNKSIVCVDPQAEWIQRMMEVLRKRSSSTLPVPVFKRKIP

[12] = molecular target: T12, I-TAC
T12 construct: also called I-TAC/CXCL11; CXCL11
T12 chemokine: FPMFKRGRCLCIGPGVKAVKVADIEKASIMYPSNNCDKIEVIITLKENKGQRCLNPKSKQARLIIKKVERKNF

[13] = molecular target: T13, Groγ
T13 construct: also called Gro-γ/CXCL3; CXCL3
T13 sequence (chemokine, as listed by the source): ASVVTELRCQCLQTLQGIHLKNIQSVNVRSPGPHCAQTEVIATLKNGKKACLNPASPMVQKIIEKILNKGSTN

[14] = molecular target: T14, ENA-78
T14 construct: also called ENA-78/CXCL5; CXCL5
T14 sequence (chemokine, as listed by the source): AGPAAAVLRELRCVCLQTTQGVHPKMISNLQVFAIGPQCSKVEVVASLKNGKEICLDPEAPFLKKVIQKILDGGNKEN

Measured: binding result

T1 sequence (chemokine, as listed by the source): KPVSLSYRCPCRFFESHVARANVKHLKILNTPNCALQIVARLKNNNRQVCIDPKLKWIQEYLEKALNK
T3 sequence (chemokine, as listed by the source): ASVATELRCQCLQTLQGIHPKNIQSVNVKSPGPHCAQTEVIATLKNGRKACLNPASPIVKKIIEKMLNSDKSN

B1: monoclonal antibody 18V4F (antibody, V domains shown)
VH: QVQLKESGPGLVAPSQSLSITCTVSGFSLTGYGIHWVRQPPGKGLEWLGVIWPGGGTNYNSALMSRLSISKDNSKSQVFLKMNSLQTDDTAMYYCARGPLITTEVSMDYWGQGTSVTVSS
VL: QAVVTQESALTTSPGETVTLTCRSNTGAVTTSNYANWVQEKPDHLFTGLIGGTNNRAPGVPARFSGSLIGDKAALTITGAQTEDEAIYFCALWYSNHWVFGGGTKLTVLG
notes: also called MAb 18V4F
no binding (tested: 3 µg/mL): [1] | [2] | [3] | [4] | [5] | [6] | [7] | [8] | [9] | [10] | [11] | [12] | [13] | [14]

From patent publication US20150166647A1 (VLST, published 2015)
